Publication PMC5563082 (2017)
One block for each binder: values may come before it.

Target: T1, human NL1(–A–B)_(ECTO) Arg450Cys, immobilised for SPR (human, biotin on the Avitag (in vivo biotinylation by BirA))
T1 chain: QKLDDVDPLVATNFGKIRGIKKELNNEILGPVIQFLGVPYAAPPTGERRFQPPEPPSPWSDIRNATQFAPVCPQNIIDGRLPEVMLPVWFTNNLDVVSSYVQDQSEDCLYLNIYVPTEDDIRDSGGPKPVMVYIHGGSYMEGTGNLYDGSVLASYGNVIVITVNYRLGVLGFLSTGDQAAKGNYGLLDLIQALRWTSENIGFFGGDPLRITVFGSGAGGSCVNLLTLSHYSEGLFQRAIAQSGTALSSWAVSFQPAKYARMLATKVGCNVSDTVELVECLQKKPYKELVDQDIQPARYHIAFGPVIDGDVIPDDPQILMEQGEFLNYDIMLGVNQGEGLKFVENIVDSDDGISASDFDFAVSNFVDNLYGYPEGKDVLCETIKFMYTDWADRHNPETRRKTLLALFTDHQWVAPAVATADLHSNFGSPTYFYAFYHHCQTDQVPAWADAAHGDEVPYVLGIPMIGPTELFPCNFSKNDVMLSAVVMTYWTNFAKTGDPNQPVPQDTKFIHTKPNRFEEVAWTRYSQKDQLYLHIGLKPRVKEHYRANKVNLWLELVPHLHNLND
Experiment: SPR

Kd: 2700 nM
B1: human β-neurexin-1 LNS6 domain with SS4 (β-NRX1_(LNS6)(+4)) (domain or fragment)
chain: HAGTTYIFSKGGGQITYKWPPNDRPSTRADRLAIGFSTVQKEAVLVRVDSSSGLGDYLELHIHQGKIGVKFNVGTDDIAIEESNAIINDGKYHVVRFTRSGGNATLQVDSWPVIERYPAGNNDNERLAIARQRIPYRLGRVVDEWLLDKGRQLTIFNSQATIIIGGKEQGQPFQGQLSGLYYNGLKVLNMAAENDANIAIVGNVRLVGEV

Kd: 760 nM
B2: human β-neurexin-1 LNS6 domain lacking SS4 (β-NRX1_(LNS6)(–4); His85-Val265) (domain or fragment)
chain: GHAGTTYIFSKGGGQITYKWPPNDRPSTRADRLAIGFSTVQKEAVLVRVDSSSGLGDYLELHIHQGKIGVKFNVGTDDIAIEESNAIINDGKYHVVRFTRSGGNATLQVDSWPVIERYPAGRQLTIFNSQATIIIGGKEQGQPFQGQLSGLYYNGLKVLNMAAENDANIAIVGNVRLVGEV
